The source of these data is US20180265890.

The data set concerns T1, PiggyBac transposase with c-myc NLS.
T1 sequence: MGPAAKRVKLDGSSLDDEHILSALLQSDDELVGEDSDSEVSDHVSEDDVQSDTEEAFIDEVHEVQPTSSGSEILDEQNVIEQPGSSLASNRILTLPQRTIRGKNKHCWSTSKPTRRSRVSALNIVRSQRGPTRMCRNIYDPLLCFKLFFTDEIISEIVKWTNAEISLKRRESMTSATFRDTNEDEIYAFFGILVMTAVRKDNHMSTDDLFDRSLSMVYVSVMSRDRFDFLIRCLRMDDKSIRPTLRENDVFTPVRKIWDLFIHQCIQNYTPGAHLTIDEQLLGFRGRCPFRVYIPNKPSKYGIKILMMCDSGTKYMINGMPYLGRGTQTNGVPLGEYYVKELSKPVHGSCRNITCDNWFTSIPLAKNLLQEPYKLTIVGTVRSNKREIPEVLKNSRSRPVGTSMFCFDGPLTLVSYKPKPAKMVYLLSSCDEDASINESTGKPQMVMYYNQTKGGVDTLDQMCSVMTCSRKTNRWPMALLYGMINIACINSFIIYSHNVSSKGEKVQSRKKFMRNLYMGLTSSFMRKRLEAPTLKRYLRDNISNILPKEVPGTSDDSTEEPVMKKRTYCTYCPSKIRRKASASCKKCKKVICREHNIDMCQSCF
Kind of data set: cell_activity. To be noted: pNB328-EGFP in Jurkat cells after 3 passages; both terminal repeats present together; K562 40.54%, primary T 56.9%, mouse ES 73.12%.

Take “GCATGCGTCAATTTTACGCAGACTATCTTTCTAGGGTTAA (double strand) [PiggyBac 3'-terminal repeat]”: the activity (% EGFP positive cells) is 36.4.

The sequence “TTAACCCTAGAAAGATAATCATATTGTGACGTACGTTAAAGATAATCATGCGTAAAATTGACGCATG (double strand) [PiggyBac 5'-terminal repeat]” came in with an activity (% EGFP positive cells) of 36.4.
